The target in the test is human FGFR2b (beta)-Fc (human) (UniProt P21802). The test can be described thus: surface plasmon resonance (Biacore T200), hFGFR2b-Fc amine-coupled to a CM5 chip, antibody injected. For orientation: Surface plasmon resonance follows binding to a sensor surface in real time, without labels.

For orientation: Kd means the concentration at which binding is half-saturated. High values mean lower affinity, low ones higher affinity. Usually koff stands for the rate constant with which the complex falls apart. Low readings indicate slow dissociation, high ones fast dissociation. Usually kon stands for the rate constant with which the complex forms. Lower therefore signals slower complex formation. The substance FPA144 (antibody) came in with a dissociation constant (Kd) of 750 pM, a koff of 7.77e-05 s⁻¹ and an association rate constant (kon) of 104000 M⁻¹ s⁻¹.

Values taken from patent US20230052680A1.
